Assay results from publication PMC2747018.

Biological target: U1-A protein of the native human U1 snRNP (human (endogenous in HeLa)) (UniProt P09012)
Assay: native MS; nano ESI-MS of the intact U1 snRNP purified from HeLa cells, 200 mM ammonium acetate, Q-ToF2, collision cell 100 V; the complex holds U1 snRNA

Sequence of UniProt P09012 (P09012 whole entry): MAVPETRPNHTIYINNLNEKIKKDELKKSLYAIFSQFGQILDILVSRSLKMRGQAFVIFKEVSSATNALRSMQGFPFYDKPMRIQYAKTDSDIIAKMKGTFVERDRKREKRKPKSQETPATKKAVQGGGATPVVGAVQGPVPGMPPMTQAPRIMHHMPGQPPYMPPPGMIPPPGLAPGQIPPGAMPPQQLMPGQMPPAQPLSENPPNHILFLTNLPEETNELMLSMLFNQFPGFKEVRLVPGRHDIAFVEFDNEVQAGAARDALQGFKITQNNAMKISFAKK

| stoichiometry N | Substance |
| --- | --- |
| 1 | Sm-D1 (from UniProt P62314 1-119) (natural protein; other documents disagree on this pair) |
| 1 | Sm-F (from UniProt P62306 1-86) (natural protein; other documents disagree on this pair) |
